Assay results as given in article PMC12561412, “Aptamer‐Mediated Artificial Synapses for Neuromorphic Modulation of Inflammatory Signaling via Organic Electrochemical Transistor”.

Key:
interferon-gamma (IFN-γ) = interferon-gamma (IFN-γ) (UniProt P01579 24-161); assay: organic electrochemical transistor, aptamer on Au gate; no noticeable current change; SPR: PBS-P+ pH 7.4, 5% DMSO, CM5 chip, 30 uL/min, 60 s injections, temperature not stated; OECT: PBS 1x pH 7.4 (also albumin, serum), VDS 0.1 V; conditions: protein: commercial; chain copies: 2
interferon-gamma (IFN-γ), sequence (P01579 24-161): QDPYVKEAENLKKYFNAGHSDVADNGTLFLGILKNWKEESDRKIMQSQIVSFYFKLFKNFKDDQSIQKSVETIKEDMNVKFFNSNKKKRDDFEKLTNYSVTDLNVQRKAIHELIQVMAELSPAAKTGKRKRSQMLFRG

interleukin-11 (IL-11) = target: T1, interleukin-11 (IL-11) (UniProt P20809 22-199); assay: as above; conditions: protein: commercial
T1 sequence: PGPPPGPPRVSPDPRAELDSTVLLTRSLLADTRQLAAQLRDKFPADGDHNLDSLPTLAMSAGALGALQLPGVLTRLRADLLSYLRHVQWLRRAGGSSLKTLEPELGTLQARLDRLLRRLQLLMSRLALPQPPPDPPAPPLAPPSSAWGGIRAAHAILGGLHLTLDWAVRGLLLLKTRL

interleukin-6 (IL-6) = interleukin-6 (IL-6) (UniProt P05231 30-212); assay: organic electrochemical transistor, aptamer on Au gate; PBS; linear response 0.5 pM to 50 nM; also in ALB and serum; SPR: PBS-P+ pH 7.4, 5% DMSO, CM5 chip, 30 uL/min, 60 s injections, temperature not stated; OECT: PBS 1x pH 7.4 (also albumin, serum), VDS 0.1 V; conditions: protein: commercial
interleukin-6 (IL-6), sequence (P05231 30-212): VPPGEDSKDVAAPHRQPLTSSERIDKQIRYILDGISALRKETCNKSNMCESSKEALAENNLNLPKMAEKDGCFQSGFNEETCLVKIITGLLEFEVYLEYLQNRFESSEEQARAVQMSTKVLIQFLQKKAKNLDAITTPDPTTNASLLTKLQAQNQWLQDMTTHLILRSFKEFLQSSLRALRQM

GGTGGCAGGAGGACTATTTATTTGCTTTTCT (ssDNA, 5' C6 thiol, immobilized on gold via Au-S) [IL-6 aptamer, thiolated, on Au gate]: no binding (interferon-gamma (IFN-γ)); no binding (interleukin-11 (IL-11)); binds (interleukin-6 (IL-6)).
